According to US20250109209A1 (ABSCI, published 2025):
Values belong to the binder of their own block, whether it stands above or below them.

What was measured:
FcRn [1] = molecular target: T1, FcRn (UniProt P55899 24-297; P61769 21-119); assay: SPR, representative sensorgram with FcRn, pH 6.0
T1 construct: also called neonatal receptor

human TL1A [2] = molecular target: T2, human TL1A (human, UniProt O95150 72-251); assay: SPR, mAb format, average
T2 construct: Antigen in SPR and ELISA; Also used here for places that print only 'TL1A' and for endogenous TL1A in human whole blood; also called TNFSF15
T2 sequence (looked up): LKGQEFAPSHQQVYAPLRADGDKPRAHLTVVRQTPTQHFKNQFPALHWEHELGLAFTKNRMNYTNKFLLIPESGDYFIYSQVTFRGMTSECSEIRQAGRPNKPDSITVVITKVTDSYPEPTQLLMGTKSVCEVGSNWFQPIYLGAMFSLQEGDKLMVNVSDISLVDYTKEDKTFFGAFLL

Cyno TL1A [3] = molecular target: T3, Cyno TL1A (cyno, UniProt G7PRK8 72-251); assay: SPR, representative sensorgram with Cyno TL1A
T3 sequence: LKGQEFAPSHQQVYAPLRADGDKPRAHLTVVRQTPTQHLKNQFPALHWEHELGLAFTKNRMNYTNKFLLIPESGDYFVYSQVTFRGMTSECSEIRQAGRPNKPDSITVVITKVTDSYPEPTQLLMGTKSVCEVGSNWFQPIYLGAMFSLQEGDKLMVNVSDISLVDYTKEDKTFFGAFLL

human TL1A [4] = molecular target: T2, human TL1A; assay: SPR, mAb format, average; remark: listed apart in the source
human TL1A [5] = molecular target: T2, human TL1A; assay: SPR, mAb format, average; remark: listed apart in the source
Cyno TL1A [6] = molecular target: T3, Cyno TL1A; assay: SPR, mAb format, average
mouse TL1A = molecular target: T4, mouse TL1A (mouse, UniProt Q5UBV8 76-252, limits assumed); assay: SPR, mAb format, average
T4 sequence (looked up): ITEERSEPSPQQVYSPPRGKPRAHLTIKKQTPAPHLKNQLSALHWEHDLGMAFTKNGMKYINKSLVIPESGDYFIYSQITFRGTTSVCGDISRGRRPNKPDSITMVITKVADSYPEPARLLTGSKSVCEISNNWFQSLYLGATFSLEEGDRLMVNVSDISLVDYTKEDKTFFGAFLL

human TL1A [7] = molecular target: T2, human TL1A; assay: SPR, representative sensorgram with Human TL1A
FcRn [8] = molecular target: T1, FcRn; assay: SPR, mAb format, FcRn at pH 6.0, average
human TL1A [9] = molecular target: T2, human TL1A; assay: SPR, affinity capture of Fab, average
human TL1A [10] = molecular target: T2, human TL1A; assay: selectivity ELISA: antibody pre-incubated with TL1A, inhibition of TL1A binding to plate-coated DcR3
human TL1A [11] = molecular target: T2, human TL1A; assay: selectivity ELISA: antibody pre-incubated with TL1A, inhibition of TL1A binding to plate-coated DR3

Kd (FcRn [1]): 14 nM
Kd (human TL1A [2]): 0.044 nM
Kd (Cyno TL1A [3]): < 0.031 nM
Kd (human TL1A [4]): 0.044 nM
Kd (human TL1A [5]): 0.044 nM
Kd (Cyno TL1A [6]): 0.032 nM
Kd (mouse TL1A): 117 nM
Kd (human TL1A [7]): < 0.044 nM
Kd (FcRn [8]): 16 nM
B1: Antibody 3 (mAb format) (antibody, human IgG1, kappa, N297A)
heavy: QVQLQESGPGLVRPSQTLSLTCTVSGFDIQDTYMHWVRQRPGRGLEWMGRIEPAGGHTKYNPSLKSRVTITRDTSKNQVSLRLSSVTAADTAVYYCVRSGGLPDAWGQGSLVTVSSASTKGPSVFPLAPSSKSTSGGTAALGCLVKDYFPEPVTVSWNSGALTSGVHTFPAVLQSSGLYSLSSVVTVPSSSLGTQTYICNVNHKPSNTKVDKKVEPKSCDKTHTCPPCPAPELLGGPSVFLFPPKPKDTLMISRTPEVTCVVVDVSHEDPEVKFNWYVDGVEVHNAKTKPREEQYASTYRVVSVLTVLHQDWLNGKEYKCKVSNKALPAPIEKTISKAKGQPREPQVYTLPPSRDELTKNQVSLTCLVKGFYPSDIAVEWESNGQPENNYKTTPPVLDSDGSFFLYSKLTVDKSRWQQGNVFSCSVLHEALHSHYTQKSLSLSPGK
light: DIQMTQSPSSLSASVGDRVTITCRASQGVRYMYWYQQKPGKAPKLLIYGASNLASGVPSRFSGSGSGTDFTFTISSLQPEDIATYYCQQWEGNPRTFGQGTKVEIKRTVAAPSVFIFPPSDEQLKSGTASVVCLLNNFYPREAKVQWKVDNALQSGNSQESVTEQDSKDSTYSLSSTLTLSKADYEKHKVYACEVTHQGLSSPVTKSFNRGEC
notes: also called high priority lead mAb

Kd (human TL1A [9]): 5.71 nM
B2: Heron2B-Toci (Fab, V domains shown)
VH: QVQLQESGPGLVRPSQTLSLTCTVSGFDIQDTYMHWVRQRPGRGLEWMGRIDPASGHTKYNPSLKSRVTITRDTSKNQVSLRLSSVTAADTAVYYCARSGGLPDVWGQGSLVTVSS
VL: DIQMTQSPSSLSASVGDRVTITCRASSSVSYMYWYQQKPGKAPKLLIYATSNLASGVPSRFSGSGSGTDFTFTISSLQPEDIATYYCQQWEGNPRTFGQGTKVEIK
notes: also called Heron2B-toci parent

IC50 (human TL1A [10]): 0.8 µg/mL
IC50 (human TL1A [11]): 4.4 µg/mL
B3: RVT-3101 (antibody, V domains shown)
VH: QVQLVQSGAEVKKPGASVKVSCKASGYDFTYYGISWVRQAPGQGLEWMGWISTYNGNTHYARMLQGRVTMTTDTSTRTAYMELRSLRSDDTAVYYCARENYYGSGAYRGGMDVWGQGTTVTVSS
VL: EIVLTQSPATLSLSPGERATLSCRASQSVSSYLAWYQQKPGQAPRLLIYDASNRATGIPARFSGSGSGTDFTLTISSLEPEDFAVYYCQQRSNWPWTFGQGTKVEIK

IC50 (human TL1A [10]): 0.7 µg/mL
IC50 (human TL1A [11]): 2.6 µg/mL
B4: TEV-48574 (antibody, V domains shown)
VH: QVQLVQSGAEVKKPGASVKVSCKASGYTFTSYDINWVRQAPGQGLEWMGWLNPNSGYTGYAQKFQGRVTMTADRSTSTAYMELSSLRSEDTAVYYCAREVPETAAFEYWGQGTLVTVSS
VL: QSVLTQPPSVSGAPGQRVTISCTSSSSDIGAGLGVHWYQQLPGTAPKLLIEGYYNRPSGVPDRFSGSKSGTSASLTITGLLPEDEGDYYCQSWDGTLSALFGGGTKLTVLR
